Target: T1, cata_human CAT (UniProt P04040)
T1 sequence: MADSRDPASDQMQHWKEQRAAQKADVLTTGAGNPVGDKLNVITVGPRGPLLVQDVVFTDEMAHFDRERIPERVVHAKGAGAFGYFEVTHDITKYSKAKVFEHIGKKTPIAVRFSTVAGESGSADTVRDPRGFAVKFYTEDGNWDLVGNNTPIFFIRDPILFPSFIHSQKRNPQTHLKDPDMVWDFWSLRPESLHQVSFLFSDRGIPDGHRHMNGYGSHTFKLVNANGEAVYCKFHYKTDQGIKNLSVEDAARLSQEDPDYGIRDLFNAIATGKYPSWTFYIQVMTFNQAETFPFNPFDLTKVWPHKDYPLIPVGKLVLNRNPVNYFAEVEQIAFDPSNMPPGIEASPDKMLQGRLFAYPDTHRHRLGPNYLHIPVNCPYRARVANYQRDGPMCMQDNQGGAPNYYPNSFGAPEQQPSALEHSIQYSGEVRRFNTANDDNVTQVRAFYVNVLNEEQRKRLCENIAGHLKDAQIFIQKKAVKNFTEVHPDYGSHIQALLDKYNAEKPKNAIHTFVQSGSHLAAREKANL

In the case of “Ras-related protein Rab-14 (Homo sapiens) (from UniProt P61106) Q70N”, the “effect of a mutation on the interaction” value is reported as “increasing interaction”.

— IntAct's records for PubMed 23333653
